Experimental findings from paper PMC5727457 (Nucleic Acids Research, 2017) are described below.

The labels stand for the following.
B2: His6-Shu2 (natural protein)
chain: MSKDVIEYSKLFAKLVNTNDDTKLDDTIASFLYYMFPRELFIRAISLLESSDMFIYILDRVHNKEGNEHTSLIDVLVDEFYKGSSNSLLEYRLIVKDTNDGAPPILVDIAHWFCSCEEFCKYFHEALEKTDEKEELHDVLINEVDDHLQFSDDRFAQLDPHSLSKQWYFKFDKVCCSHLLAFSILLRSSINVLKFFTVNSNKVFVIAIDNIDEWLNLHINIVE

Experiment [1] has as its target T1, Psy3 (S. cerevisiae, UniProt Q12318 1-242).
T1 sequence: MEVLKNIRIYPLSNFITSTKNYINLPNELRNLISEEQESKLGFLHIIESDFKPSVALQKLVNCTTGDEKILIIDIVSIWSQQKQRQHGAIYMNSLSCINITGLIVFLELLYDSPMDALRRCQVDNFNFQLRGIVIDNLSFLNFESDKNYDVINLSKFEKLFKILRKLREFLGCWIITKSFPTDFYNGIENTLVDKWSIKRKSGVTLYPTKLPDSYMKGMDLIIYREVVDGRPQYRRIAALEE
The experiment can be described thus: crystal structure.

Experiment [2] addresses B2. In words: pull-down.
The target of experiment [3] is T2, His6-tagged Psy3-Csm2 heterodimer (S. cerevisiae, UniProt Q12318;P40465).
T2 sequence 1: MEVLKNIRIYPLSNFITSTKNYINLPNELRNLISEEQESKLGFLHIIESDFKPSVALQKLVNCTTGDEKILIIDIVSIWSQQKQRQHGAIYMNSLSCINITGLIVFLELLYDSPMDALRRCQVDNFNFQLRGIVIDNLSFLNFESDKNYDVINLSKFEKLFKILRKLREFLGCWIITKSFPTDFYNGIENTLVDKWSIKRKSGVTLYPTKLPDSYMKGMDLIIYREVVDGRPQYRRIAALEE
T2 sequence 2: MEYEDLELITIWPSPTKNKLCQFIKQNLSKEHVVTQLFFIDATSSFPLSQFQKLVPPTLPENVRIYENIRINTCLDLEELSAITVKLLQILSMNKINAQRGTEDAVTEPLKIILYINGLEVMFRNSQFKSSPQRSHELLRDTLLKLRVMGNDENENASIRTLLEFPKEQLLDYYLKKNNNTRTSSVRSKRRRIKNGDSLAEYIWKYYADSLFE
In words: pull-down.

Experiment [4] has as its target T3, His6-tagged Psy3Δ(1–7)-Csm2 heterodimer (S. cerevisiae, UniProt Q12318;P40465).
T3 sequence 1: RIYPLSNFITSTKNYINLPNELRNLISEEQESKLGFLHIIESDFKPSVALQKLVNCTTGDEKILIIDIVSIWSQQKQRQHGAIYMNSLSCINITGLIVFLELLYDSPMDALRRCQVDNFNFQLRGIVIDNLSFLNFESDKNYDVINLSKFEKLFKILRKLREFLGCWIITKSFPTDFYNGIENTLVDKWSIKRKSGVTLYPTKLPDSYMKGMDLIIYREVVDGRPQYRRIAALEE
T3 sequence 2: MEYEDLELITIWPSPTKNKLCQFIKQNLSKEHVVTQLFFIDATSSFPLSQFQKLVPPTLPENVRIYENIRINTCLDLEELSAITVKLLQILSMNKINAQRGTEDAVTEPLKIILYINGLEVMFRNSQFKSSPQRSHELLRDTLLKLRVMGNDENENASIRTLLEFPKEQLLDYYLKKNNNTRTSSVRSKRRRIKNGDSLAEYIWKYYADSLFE
In words: pull-down.

B1: Csm2 (natural protein)
chain: MEYEDLELITIWPSPTKNKLCQFIKQNLSKEHVVTQLFFIDATSSFPLSQFQKLVPPTLPENVRIYENIRINTCLDLEELSAITVKLLQILSMNKINAQRGTEDAVTEPLKIILYINGLEVMFRNSQFKSSPQRSHELLRDTLLKLRVMGNDENENASIRTLLEFPKEQLLDYYLKKNNNTRTSSVRSKRRRIKNGDSLAEYIWKYYADSLFE
As for B1, in experiment [1], the binding result is on record as “binds”. Consider B2, for which the binding result in experiment [1] is “binds”.

B3: Shu1 (natural protein)
chain: MQFEERLQQLVESDWSLDQSSPNVLVIVLGDTARKYVELGGLKEHVTTNTVAGHVASRERVSVVFLGRVKYLYMYLTRMQAQANGPQYSNVLVYGLWDLTATQDGPQQLRLLSLVLRQCLSLPSKVEFYPEPPSSSVPARLLRFWDHIIR
For the molecule B3, the binding result in experiment [1] and in experiment [2] was “binds” each time.

B4: Shu2-Shu1 heterodimer (His6 tag removed) (complex)
chain 1: MSKDVIEYSKLFAKLVNTNDDTKLDDTIASFLYYMFPRELFIRAISLLESSDMFIYILDRVHNKEGNEHTSLIDVLVDEFYKGSSNSLLEYRLIVKDTNDGAPPILVDIAHWFCSCEEFCKYFHEALEKTDEKEELHDVLINEVDDHLQFSDDRFAQLDPHSLSKQWYFKFDKVCCSHLLAFSILLRSSINVLKFFTVNSNKVFVIAIDNIDEWLNLHINIVE
chain 2: MQFEERLQQLVESDWSLDQSSPNVLVIVLGDTARKYVELGGLKEHVTTNTVAGHVASRERVSVVFLGRVKYLYMYLTRMQAQANGPQYSNVLVYGLWDLTATQDGPQQLRLLSLVLRQCLSLPSKVEFYPEPPSSSVPARLLRFWDHIIR
B4: the binding result in experiment [3] and in experiment [4] was “binds” in each case.

B5: Shu2-Shu1(V51A) heterodimer (His6 tag removed) (complex)
chain 1: MSKDVIEYSKLFAKLVNTNDDTKLDDTIASFLYYMFPRELFIRAISLLESSDMFIYILDRVHNKEGNEHTSLIDVLVDEFYKGSSNSLLEYRLIVKDTNDGAPPILVDIAHWFCSCEEFCKYFHEALEKTDEKEELHDVLINEVDDHLQFSDDRFAQLDPHSLSKQWYFKFDKVCCSHLLAFSILLRSSINVLKFFTVNSNKVFVIAIDNIDEWLNLHINIVE
chain 2: MQFEERLQQLVESDWSLDQSSPNVLVIVLGDTARKYVELGGLKEHVTTNTAAGHVASRERVSVVFLGRVKYLYMYLTRMQAQANGPQYSNVLVYGLWDLTATQDGPQQLRLLSLVLRQCLSLPSKVEFYPEPPSSSVPARLLRFWDHIIR
As to B5, the binding result in experiment [3] is reported as “binds”.

B6: Shu2-Shu1(V51L) heterodimer (His6 tag removed) (complex)
chain 1: MSKDVIEYSKLFAKLVNTNDDTKLDDTIASFLYYMFPRELFIRAISLLESSDMFIYILDRVHNKEGNEHTSLIDVLVDEFYKGSSNSLLEYRLIVKDTNDGAPPILVDIAHWFCSCEEFCKYFHEALEKTDEKEELHDVLINEVDDHLQFSDDRFAQLDPHSLSKQWYFKFDKVCCSHLLAFSILLRSSINVLKFFTVNSNKVFVIAIDNIDEWLNLHINIVE
chain 2: MQFEERLQQLVESDWSLDQSSPNVLVIVLGDTARKYVELGGLKEHVTTNTLAGHVASRERVSVVFLGRVKYLYMYLTRMQAQANGPQYSNVLVYGLWDLTATQDGPQQLRLLSLVLRQCLSLPSKVEFYPEPPSSSVPARLLRFWDHIIR
For B6, in experiment [3], the binding result is given as “binds”.
